Series [1] concerns the target T1, HA-tagged human IgG1 Fc portion with CH3 mutations E345R, Q347R, T366V, K409V.
T1 chain: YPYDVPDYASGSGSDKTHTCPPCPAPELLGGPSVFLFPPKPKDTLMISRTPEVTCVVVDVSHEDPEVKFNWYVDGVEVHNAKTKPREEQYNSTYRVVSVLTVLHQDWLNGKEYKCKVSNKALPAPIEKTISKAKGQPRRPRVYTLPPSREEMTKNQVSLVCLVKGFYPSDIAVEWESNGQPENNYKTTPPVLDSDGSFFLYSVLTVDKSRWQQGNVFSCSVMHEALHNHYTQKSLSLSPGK
Kind of series: UPLC SEC of protein G-purified one-arm antibody co-expressed in HEK293F.

For series [2], the target named is T2, HA-tagged human IgG1 Fc portion with CH3 mutations K360D, D399M, Y407A.
T2 chain: T1 chain with R139E, R141Q, K154D, V160T, D193M, Y201A, V203K
The description is as above.

For series [3], the target named is BHA10 HC_7.8_B + BHA10 LC (IgG1). The experiment in a line: LCMS, IgG1 BsAb co-expression; HCA/HCB heterodimer carrying two LC2.
Series [4] has as its target matuzumab HC_7.8_B + matuzumab LC (IgG1). The description is as above.
A short description of series [5]: LCMS, IgG1 BsAb co-expression; HCA homodimer species.
For series [6], the target named is BHA10 HC_7.8_B + BHA10 LC (IgG1). The experiment in a line: LCMS, IgG1 BsAb co-expression; HCA/HCB heterodimer carrying two LC1.
Series [7] concerns the target matuzumab HC_7.8_B + matuzumab LC (IgG1). The series is described as above.
Series [8] has as its target BHA10 HC_7.8_B + BHA10 LC (IgG1). The experiment in a line: LCMS, IgG1 BsAb co-expression in HEK293F.
Series [9] has as its target matuzumab HC_7.8_B + matuzumab LC (IgG1). Kind of series: LCMS, IgG1 BsAb co-expression in HEK293F.
Series [10] concerns the target matuzumab HC_20.8.34_B + matuzumab LC (IgG1). The experiment in a line: LCMS, IgG1 BsAb co-expression; HCA/HCB heterodimer carrying two LC2.
Series [11] has as its target BHA10 HC_20.8.34_B + BHA10 LC (IgG1). Described as above.
For series [12], the target named is matuzumab HC_20.8.37_B + matuzumab LC (IgG1). The description is as above.
In series [13] the target is matuzumab HC_20.8_B + matuzumab LC (IgG1). Described as above.
For series [14], the target named is BHA10 HC_20.8.37_B + BHA10 LC (IgG1). The description is as above.
In series [15] the target is BHA10 HC_20.8_B + BHA10 LC (IgG1). The description is as above.
Series [16] deals with matuzumab HC_20.8.34_B + matuzumab LC (IgG1). The experiment in a line: LCMS, IgG1 BsAb co-expression; HCA/HCB heterodimer carrying two LC1.
Series [17] addresses BHA10 HC_20.8.34_B + BHA10 LC (IgG1). The series is described as above.
For series [18], the target named is matuzumab HC_20.8.37_B + matuzumab LC (IgG1). The description is as above.
The target of series [19] is matuzumab HC_20.8_B + matuzumab LC (IgG1). The series is described as above.
Series [20] deals with BHA10 HC_20.8.37_B + BHA10 LC (IgG1). The series is described as above.
The target of series [21] is BHA10 HC_20.8_B + BHA10 LC (IgG1). The series is described as above.
The target of series [22] is matuzumab HC_20.8.34_B + matuzumab LC (IgG1). The experiment in a line: LCMS, IgG1 BsAb co-expression in HEK293F.
Series [23] has as its target BHA10 HC_20.8.34_B + BHA10 LC (IgG1). The experiment in a line: LCMS, IgG1 BsAb co-expression in HEK293F.
Series [24] addresses matuzumab HC_20.8.37_B + matuzumab LC (IgG1). The experiment in a line: LCMS, IgG1 BsAb co-expression in HEK293F.
In series [25] the target is matuzumab HC_20.8_B + matuzumab LC (IgG1). The experiment in a line: LCMS, IgG1 BsAb co-expression in HEK293F.
In series [26] the target is BHA10 HC_20.8.37_B + BHA10 LC (IgG1). The experiment in a line: LCMS, IgG1 BsAb co-expression in HEK293F.
Series [27] concerns the target BHA10 HC_20.8_B + BHA10 LC (IgG1). Kind of series: LCMS, IgG1 BsAb co-expression in HEK293F.
Series [28] deals with matuzumab HC_7.8.60_B + matuzumab LC (IgG1). Kind of series: LCMS, IgG1 BsAb co-expression; HCA/HCB heterodimer carrying two LC2.
For series [29], the target named is BHA10 HC_7.8.60_B + BHA10 LC (IgG1). The series is described as above.
In series [30] the target is matuzumab HC_7.8.60_B + matuzumab LC (IgG1). The experiment in a line: LCMS, IgG1 BsAb co-expression; HCA/HCB heterodimer carrying two LC1.
The target in series [31] is BHA10 HC_7.8.60_B + BHA10 LC (IgG1). Described as above.
Series [32] has as its target matuzumab HC_7.8.60_B + matuzumab LC (IgG1). Kind of series: LCMS, IgG1 BsAb co-expression in HEK293F.
Series [33] has as its target BHA10 HC_7.8.60_B + BHA10 LC (IgG1). The experiment in a line: LCMS, IgG1 BsAb co-expression in HEK293F.
[34] abbreviates: pertuzumab × matuzumab bispecific.

Data on five proteins can be found in patent US20180009908.

Residue numbers refer to the chain shown, from its start. Numbers in names are those of the source.

B1: anti-c-Met 5D5 VH-human IgG1 HC with CH3 mutations K360D, D399M, Y407A, with 5D5 light chain (protein)
chain 1: EVQLVESGGGLVQPGGSLRLSCAASGYTFTSYWLHWVRQAPGKGLEWVGMIDPSNSDTRFNPNFKDRFTISADTSKNTAYLQMNSLRAEDTAVYYCATYRSYVTPLDYWGQGTLVTVSSASTKGPSVFPLAPSSKSTSGGTAALGCLVKDYFPEPVTVSWNSGALTSGVHTFPAVLQSSGLYSLSSVVTVPSSSLGTQTYICNVNHKPSNTKVDKRVEPKSCDKTHTCPPCPAPELLGGPSVFLFPPKPKDTLMISRTPEVTCVVVDVSHEDPEVKFNWYVDGVEVHNAKTKPREEQYNSTYRVVSVLTVLHQDWLNGKEYKCKVSNKALPAPIEKTISKAKGQPREPQVYTLPPSREEMTDNQVSLTCLVKGFYPSDIAVEWESNGQPENNYKTTPPVLMSDGSFFLASKLTVDKSRWQQGNVFSCSVMHEALHNHYTQKSLSLSPGK
chain 2: DIQMTQSPSSLSASVGDRVTITCKSSQSLLYTSSQKNYLAWYQQKPGKAPKLLIYWASTRESGVPSRFSGSGSGTDFTLTISSLQPEDFATYYCQQYYAYPWTFGQGTKVEIKRTVAAPSVFIFPPSDEQLKSGTASVVCLLNNFYPREAKVQWKVDNALQSGNSQESVTEQDSKDSTYSLSSTLTLSKADYEKHKVYACEVTHQGLSSPVTKSFNRGEC
In series [1], B1 came in with a % heterodimer (UPLC) of 93%.

B2: anti-c-Met 5D5 VH-human IgG1 HC with CH3 mutations E345R, Q347R, T366V, K409V, with 5D5 light chain (protein)
chain 1: B1 chain 1 with E347R, Q349R, D362K, T368V, M401D, A409Y, K411V
chain 2: B1 chain 2
B2 gave a % heterodimer (UPLC) in [2] of 93.3%.

B3: pertuzumab HC_7.8_A + pertuzumab LC (IgG1) (protein)
chain 1: EVQLVESGGGLVQPGGSLRLSCAASGFTFTDYTMDWVRKAPGKGLEWVADVNPNSGGSIYNQEFKGRFTLSVDRSKNTLYLQMNSLRAEDTAVYYCARNLGPSFYFDYWGQGTLVTVSSASTKGPSVFPLAPSSKSTSGGTAALGCLVKDYFPEPVTVSWNSGALTSGVATGPAVLQSSGLYSLSSVVTVPSSSLGTQTYICNVNHKPSNTKVDKKVEPKSCDKTHTCPPCPAPELLGGPSVFLFPPKPKDTLMISRTPEVTCVVVDVSHEDPEVKFNWYVDGVEVHNAKTKPREEQYQSTYRVVSVLTVLHQDWLNGKEYKCKVSNKALPAPIEKTISKAKGQPREPQVYTLPPSREEMTKNQVSLTCLVKGFYPSDIAVEWESNGQPENNYKTTPPVLMSDGSFFLASKLTVDKSRWQQGNVFSCSVMHEALHNHYTQKSLSLSPGK
chain 2: RIQMTQSPSSLSASVGDRVTITCKASQDVSIGVAWYQDKPGKAPKLLIYSASYRYTGVPSRFSGSGSGTDFTLTISSLQPEDFATYYCQQYYIYPYTFGQGTKVEIKGQPKAAPSVTLFPPSSEELQANKATLVCYISDFYPGAVTVAWKADSSPVKAGVETTTPSKQSNNKYAAWSYLSLTPEQWKSHRSYSCQVTHEGSTVEKTVAPTEC
For the protein B3, the % AB (2x LC2) (incorrect assembly) stood at 0% in series [3] and 1.2% in series [4]. Besides, the % AA Homodimer (incorrect assembly) amounted to 0% in [5] (pertuzumab × BHA10 bispecific) and 0.5% in [5] (setting [34]). Further, the % AB (2x LC1) (incorrect assembly) in [6] was found to be 15.6%; in series [7] it was 0%. Further, the % AB (LC1/LC2) (correct IgG BsAb assembly) in [8] came out at 69.3%; in series [9], 95.4%.

B4: pertuzumab HC_20.8.26_A + pertuzumab LC (IgG1) (protein)
chain 1: B3 chain 1 with Y351S, T368M, K372Y, M401D, A409Y, K411V
chain 2: B3 chain 2
On to B4, for which the % AB (2x LC2) (incorrect assembly) in series [10], in series [11], in series [12], in series [13], in series [14] and in [15] was 0% in each case. Besides, the % AB (2x LC1) (incorrect assembly) was determined as 0% in series [16]; 9.7% in [17]; 0% in series [18]; 0% in series [19]; 7.5% in series [20]; 0% in series [21]. Moreover, the % AB (LC1/LC2) (correct IgG BsAb assembly) was 96.9% in series [22]; 90.3% in series [23]; 97.6% in [24]; 95.2% in series [25]; 89.6% in [26]; 96.9% in series [27].

B5: pertuzumab HC_7.8.60_A + pertuzumab LC (IgG1) (protein)
chain 1: B3 chain 1 with K362D
chain 2: B3 chain 2
As to B5, the % AB (2x LC2) (incorrect assembly) in series [28] was 0%; in series [29], 2.5%. Besides, the % AA Homodimer (incorrect assembly) in series [5] (pertuzumab × BHA10 bispecific) was determined as 0.7%; in series [5] (setting [34]), 0.6%. Also, the % AB (2x LC1) (incorrect assembly) in [30] and in series [31] was 0% throughout. Further, the values for the % AB (LC1/LC2) (correct IgG BsAb assembly) in [32] and in series [33] were 98.1% and 95.2%, respectively.
